The values below come from US20220127354A1 (Amgen, published 2022).

This experiment has as its target T1, muCDH19(44-461)::huCDH19(464-772) with Flag tag (construct H, Hu EC5) (human/mouse chimera).
T1 construct: leader left out; the entry starts at residue 44; also called C137915
T1 chain: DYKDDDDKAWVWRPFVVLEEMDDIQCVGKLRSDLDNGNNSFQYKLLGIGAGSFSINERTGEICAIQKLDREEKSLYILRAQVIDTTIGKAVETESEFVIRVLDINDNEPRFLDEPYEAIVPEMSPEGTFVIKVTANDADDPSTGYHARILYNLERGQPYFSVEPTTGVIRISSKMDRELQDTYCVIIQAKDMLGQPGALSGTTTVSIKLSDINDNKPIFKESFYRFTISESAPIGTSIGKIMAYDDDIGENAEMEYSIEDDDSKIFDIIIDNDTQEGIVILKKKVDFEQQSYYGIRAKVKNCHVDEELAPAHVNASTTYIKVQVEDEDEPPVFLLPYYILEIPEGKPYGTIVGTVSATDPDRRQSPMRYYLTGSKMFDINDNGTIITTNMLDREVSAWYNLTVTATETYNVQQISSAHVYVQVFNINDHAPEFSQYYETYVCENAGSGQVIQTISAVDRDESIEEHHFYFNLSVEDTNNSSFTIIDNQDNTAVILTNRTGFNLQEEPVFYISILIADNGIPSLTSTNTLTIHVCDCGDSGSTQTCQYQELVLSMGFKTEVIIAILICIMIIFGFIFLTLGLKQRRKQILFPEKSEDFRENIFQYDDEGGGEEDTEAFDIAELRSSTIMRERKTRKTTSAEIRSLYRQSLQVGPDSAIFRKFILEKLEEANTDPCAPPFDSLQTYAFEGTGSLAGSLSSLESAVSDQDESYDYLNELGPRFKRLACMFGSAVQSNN
Nature of the experiment: flow cytometry, transfected 293T cells. A general note: In flow cytometry, cells or beads pass a laser one at a time.

From the text: The experiment included assaying the anti-CDH19 antibodies against mouse Cadherin19 to determine suitability for binning on these human/mouse chimeras.

B1: anti-CDH19 antibody 2G6 (Ab ID 13588) (antibody, human IgG1, lambda, V domains shown)
VH: QVQLVESGGGVVQPGRSLRLSCAASGFTFSSYGMHWVRQAPGKGLEWVAFIWYDGSNKYYADSVKDRFTISRDNSKNTLYLQMKSLRAEDTAVYYCARRAGIIGTIGYYYGMDVWGQGTTVTVSS
VL: SYELTQPPSVSVSPGQTASITCSGDRLGEKYTCWYQQRPGQSPLLVIYQDTKRPSGIPERFSGSNSGNTATLTISGTQAMDEADYYCQAWDSSTVVFGGGTKLTVLG
notes: Bin 4
With B1, the binding result is “binds”.
